Test results published in patent publication US20250295776A1, “CLEAVAGE RESISTANT CD16 CONSTRUCTS AND USES THEREOF” (Celularity Inc., priority 2022, published 2025).
One block for each substance: values may come before it.

What was measured:
Test in all cases: cell-based or functional assay
[1] = molecular target: HER2 (human epidermal growth factor 2) on HER2 overexpressing tumor cell lines (human) (UniProt P04626)
[2] = molecular target: CD16VS (construct #5: 176 V; SCRAMBLED original sequence), without Myc tag (human) (UniProt P08637)
[3] = molecular target: Construct #1 (176 V; 197 Glycine (G)), without Myc tag (human) (UniProt P08637)
[4] = molecular target: Construct #10 (176 V (also referred to as 158 V); 197 Serine (S)), without Myc tag (human) (UniProt P08637)
[5] = molecular target: endogenous CD16 on non-transduced (NT) placental NK cells (human) (UniProt P08637)
[6] = molecular target: high affinity (158 Val) and proteinase cleavage resistant (197Pro) CD16 variant (CD16VP) (human) (UniProt P08637)

Sequence of Avelumab (anti-PD-L1 antibody) (HC): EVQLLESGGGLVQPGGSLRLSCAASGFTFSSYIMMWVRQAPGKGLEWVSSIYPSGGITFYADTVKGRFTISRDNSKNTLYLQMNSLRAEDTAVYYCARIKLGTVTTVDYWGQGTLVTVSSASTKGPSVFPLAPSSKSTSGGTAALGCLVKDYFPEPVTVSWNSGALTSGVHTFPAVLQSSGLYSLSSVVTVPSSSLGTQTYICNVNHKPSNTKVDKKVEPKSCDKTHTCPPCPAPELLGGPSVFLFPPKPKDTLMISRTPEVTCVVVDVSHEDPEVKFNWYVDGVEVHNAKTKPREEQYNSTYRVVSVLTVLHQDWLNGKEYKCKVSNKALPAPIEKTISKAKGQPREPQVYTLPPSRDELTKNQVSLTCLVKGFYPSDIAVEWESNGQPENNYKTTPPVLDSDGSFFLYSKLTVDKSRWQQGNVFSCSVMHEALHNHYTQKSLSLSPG
Sequence of Avelumab (anti-PD-L1 antibody) (LC): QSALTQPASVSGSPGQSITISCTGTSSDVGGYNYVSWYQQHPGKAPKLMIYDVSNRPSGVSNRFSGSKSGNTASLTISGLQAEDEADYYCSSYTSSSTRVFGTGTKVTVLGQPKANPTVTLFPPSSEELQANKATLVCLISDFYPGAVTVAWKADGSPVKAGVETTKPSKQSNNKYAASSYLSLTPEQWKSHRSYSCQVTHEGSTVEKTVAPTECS

lysis of NCI-N87 cells by CYNK-101 cells (n=7 donors) in the presence of IgG control, 24 h, E:T 0.6:1, xCELLigence [1]: 7.5%
lysis of OE19 cells by CYNK-101 cells (n=7 donors) in the presence of IgG control, 24 h, E:T 0.6:1, xCELLigence [1]: 14.7%
Substance: Ultra-LEAF purified human IgG1 isotype control recombinant antibody

cytolysis of 5637, T-24, RT-112 and NCI-H1975 tumor cell lines by PT-CD16VS cells with Avelumab, 24 hours, 5:1 E:T ratio [2]: 100%
cytolysis of MDA-MB-231 by PT-CD16VS cells with Avelumab, 12 hours, 5:1 E:T ratio [2]: 70%
Substance: Avelumab (anti-PD-L1 antibody)

CD16 shedding percentage post 2 h PMAi stimulation, transduced CYNK cells (n=6 donors) [2]: 0.6%
CD16 shedding percentage post 2 h PMAi stimulation, transduced CYNK cells (n=6 donors) [3]: 9.4%
CD16 shedding percentage post 2 h PMAi stimulation, transduced CYNK cells (n=6 donors) [4]: 1.8%
CD16 shedding after 2 h PMAi, control sample [5]: 60%
CD16 shedding percentage post 2 h PMAi stimulation, NT CYNK cells [5]: 74.7%
CD16 shedding after PMA/ionomycin activation, flow cytometry, PNK-CD16VP cells [6]: < 11%
CD16 shedding percentage post 2 h PMAi stimulation, transduced CYNK cells (n=6 donors) [6]: 4.3%
Substance: metalloprotease ADAM17 (from UniProt P78536 215-824) (enzyme)

Substance: Daratumumab (anti-CD38) (antibody)
cytotoxicity (ADCC) of NT cells against Daratumumab opsonized Daudi cells, E:T 10:1 (n=5) [5]: 25%
cytotoxicity (ADCC) of NT cells against Daratumumab opsonized HS-Sultan cells, E:T 10:1 (n=3) [5]: 21%
cytotoxicity (ADCC) of NT cells against Daratumumab opsonized Sudh16 cells, E:T 10:1 (n=3) [5]: 16%
cytotoxicity (ADCC) of PNK-CD16VP cells against Daratumumab opsonized Daudi cells, E:T 10:1 (n=5) [6]: 47%
cytotoxicity (ADCC) of PNK-CD16VP cells against Daratumumab opsonized HS-Sultan cells, E:T 10:1 (n=3) [6]: 30%
cytotoxicity (ADCC) of PNK-CD16VP cells against Daratumumab opsonized Sudh16 cells, E:T 10:1 (n=3) [6]: 30%
